Results from patent publication US20110262445A1 (CEPHALON AUSTRALIA, published 2011).

T1: human IL-12 (human, UniProt P29460 23-328; P29459 23-219)
T1 construct: Recombinant (Peprotech); FLAG-tagged IL-12 in the flow cytometry assays, biotinylated in the IL-12Rβ2 assay; also called hIL-12
T1 sequence 1: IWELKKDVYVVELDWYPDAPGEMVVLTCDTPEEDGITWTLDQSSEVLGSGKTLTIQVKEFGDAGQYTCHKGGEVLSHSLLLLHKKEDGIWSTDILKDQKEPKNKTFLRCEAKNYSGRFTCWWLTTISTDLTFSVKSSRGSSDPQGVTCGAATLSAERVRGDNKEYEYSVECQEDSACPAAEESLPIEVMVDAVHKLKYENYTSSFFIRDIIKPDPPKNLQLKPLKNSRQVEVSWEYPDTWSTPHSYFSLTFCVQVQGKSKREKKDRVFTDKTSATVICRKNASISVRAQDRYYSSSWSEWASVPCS
T1 sequence 2: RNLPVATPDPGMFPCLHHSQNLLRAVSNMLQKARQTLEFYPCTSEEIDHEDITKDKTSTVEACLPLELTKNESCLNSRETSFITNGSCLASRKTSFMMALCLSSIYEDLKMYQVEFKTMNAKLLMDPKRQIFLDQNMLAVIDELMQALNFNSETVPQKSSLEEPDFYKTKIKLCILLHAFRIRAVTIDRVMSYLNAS

T2: human IL-23 (human, UniProt P29460 23-328; Q9NPF7 20-189)
T2 construct: Recombinant (Ebioscience); HIS-tagged in flow cytometry, biotinylated in some assays; also called hIL-23; rhIL-23
T2 sequence 1: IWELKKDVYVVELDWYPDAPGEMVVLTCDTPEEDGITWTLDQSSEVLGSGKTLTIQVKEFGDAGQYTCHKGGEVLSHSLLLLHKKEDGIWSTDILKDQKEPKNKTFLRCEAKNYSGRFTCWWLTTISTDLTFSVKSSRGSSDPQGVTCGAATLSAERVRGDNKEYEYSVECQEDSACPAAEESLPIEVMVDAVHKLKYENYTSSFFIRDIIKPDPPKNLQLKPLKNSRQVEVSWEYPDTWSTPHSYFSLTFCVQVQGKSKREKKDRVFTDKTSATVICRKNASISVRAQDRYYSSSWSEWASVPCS
T2 sequence 2: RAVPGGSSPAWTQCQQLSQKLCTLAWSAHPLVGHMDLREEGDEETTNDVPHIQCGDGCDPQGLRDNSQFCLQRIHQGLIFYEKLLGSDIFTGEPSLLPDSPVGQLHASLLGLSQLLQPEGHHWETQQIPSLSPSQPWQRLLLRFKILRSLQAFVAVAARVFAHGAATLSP


Columns and labels:
human IL-12 = target: T1, human IL-12; test: ELISA, coated IL-12
Outline: (§1)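 Each value is an absorbance measuring binding. Plates (Maxisorp) carried cytokine coated at 1 μg/mL in carbonate buffer pH 9.6 overnight at 4° C, were blocked with 1% BSA in PBS for 1 hour at 25° C, and received antibody titrations for 1 hour at 25° C. Detection used goat anti-human IgG or anti-murine immunoglobulin HRP at 1:2000 for 1 hour, then TMB stopped with 1M HCl, with absorbance taken at 450 nm (reference 620 nm).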

human IL-23 [1] = target: T2, human IL-23; test: ELISA, coated IL-23
Outline: as §1

human IL-23 [2] = target: T2, human IL-23; test: SPR screen, crude scFv captured via FLAG
Experimental: Approximately 6500 individual scFvs recovered from the ribosome display reactions were expressed and screened for binding against IL-23 using a high-throughout SPR assay. The variants were ranked according to the kd and the best variants were sequenced at the nucleic acid level.
High-throughput SPR screening was conducted using a BIAcore A100 biosensor (GE Healthcare). Approximately 10 000 RU of the proprietary FLAG-specific capture molecule was immobilized on a CM5 Series S Sensor chip, using standard amine coupling chemistry on Spots 1 & 5 (outer spots) and 3,000RU to Spots 2 & 4 (inner spots) in each of the four flow cells of the BIAcore A100 Biosensor. The running buffer used was HBS-EP+ (BIAcore) and all interactions measured at 25° C. Crude periplasmic preparations of FLAG-tagged scFvs (prepared as described in the previous paragraph), were diluted two-fold in running buffer before capturing at a flow rate of 5u1/min for 60 sec. Approx. 100RU (on outer spots) and 50RU (on inner spots) of tagged scFv was captured. Following a 2 min stabilization period, IL-23 was passed over all spots of all four flow cells simultaneously at a flow rate of 30u1/min for 120 sec and dissociation monitored for 200 sec. Generated sensorgrams were referenced against the unmodified spot 3 of each flow cell, and fitted using a 1:1 Langmuir equation with R1 set to local to account for varying ligand densities to generate the kₐ, kd and KD values.

human IL-23 [3] = target: T2, human IL-23; test: SPR, single 81 nM analyte, scFv via FLAG

koff (human IL-23 [2]) [s⁻¹]	Binder	other results
0.00016	scFv CW-H1 (scFv, scFv-80 variant: VL S52R; not shown: proprietary C-terminal FLAG tag) scFv: QVQLVQSGAEVKKPGASVKVSCKASGYTFTDYYLHWVRQAPGQGLEWMGWIDPENGDTEYAPKFQGRVTMTTDTSTSTAYMELRSLRSDDTAVYYCNANKELRYFDVWGQGTMVTVSSGGGGSGGGGSGGGGSEIVMTQSPATLSVSPGERATLSCRASQSISINLHWYQQKPGQAPRLLIYFARQSISGIPARFSGSGSGTEFTLTISSLQSEDFAVYYCQQSNSFPLTFGGGTKVEIKR	
0.00033	scFv CE-A6 (scFv, scFv-80 variant: VL G64S; not shown: proprietary C-terminal FLAG tag) scFv: QVQLVQSGAEVKKPGASVKVSCKASGYTFTDYYLHWVRQAPGQGLEWMGWIDPENGDTEYAPKFQGRVTMTTDTSTSTAYMELRSLRSDDTAVYYCNANKELRYFDVWGQGTMVTVSSGGGGSGGGGSGGGGSEIVMTQSPATLSVSPGERATLSCRASQSISINLHWYQQKPGQAPRLLIYFASQSISGIPARFSSSGSGTEFTLTISSLQSEDFAVYYCQQSNSFPLTFGGGTKVEIKR	
0.000278	scFv CW-H7 (scFv, scFv-80 variant: VL V13M; not shown: proprietary C-terminal FLAG tag) scFv: QVQLVQSGAEVKKPGASVKVSCKASGYTFTDYYLHWVRQAPGQGLEWMGWIDPENGDTEYAPKFQGRVTMTTDTSTSTAYMELRSLRSDDTAVYYCNANKELRYFDVWGQGTMVTVSSGGGGSGGGGSGGGGSEIVMTQSPATLSMSPGERATLSCRASQSISINLHWYQQKPGQAPRLLIYFASQSISGIPARFSGSGSGTEFTLTISSLQSEDFAVYYCQQSNSFPLTFGGGTKVEIKR	
0.00012	scFv CL-G7 (scFv, scFv-80 variant: VH E10Q; not shown: proprietary C-terminal FLAG tag) scFv: QVQLVQSGAQVKKPGASVKVSCKASGYTFTDYYLHWVRQAPGQGLEWMGWIDPENGDTEYAPKFQGRVTMTTDTSTSTAYMELRSLRSDDTAVYYCNANKELRYFDVWGQGTMVTVSSGGGGSGGGGSGGGGSEIVMTQSPATLSVSPGERATLSCRASQSISINLHWYQQKPGQAPRLLIYFASQSISGIPARFSGSGSGTEFTLTISSLQSEDFAVYYCQQSNSFPLTFGGGTKVEIKR	

More lines, now with the values behind:

Binder	koff (human IL-23 [2]) [s⁻¹]	other results
Antibody 124 (antibody, human IgG1, kappa) heavy chain: not shown light chain: DIQMTQSPSSVSASVGDRVTITCRASQSISINLHWYQQKPGKAPKLLIYFASQSISGVPSRFSGSGSGTDFSLTINSLQPEDFARYYCQQSNSFPLTFGGGTKVEIKRTVAAPSVFIFPPSDEQLKSGTASVVCLLNNFYPREAKVQWKVDNALQSGNSQESVTEQDSKDSTYSLSSTLTLSKADYEKHKVYACEVTHQGLSSPVTKSFNRGEC		binding result (human IL-12): binds; binding result (human IL-23 [1]): binds
scFv AY-B2 (scFv, scFv-80 variant: VH M69V; not shown: proprietary C-terminal FLAG tag) scFv: QVQLVQSGAEVKKPGASVKVSCKASGYTFTDYYLHWVRQAPGQGLEWMGWIDPENGDTEYAPKFQGRVTVTTDTSTSTAYMELRSLRSDDTAVYYCNANKELRYFDVWGQGTMVTVSSGGGGSGGGGSGGGGSEIVMTQSPATLSVSPGERATLSCRASQSISINLHWYQQKPGQAPRLLIYFASQSISGIPARFSGSGSGTEFTLTISSLQSEDFAVYYCQQSNSFPLTFGGGTKVEIKR	0.0001	
scFv combo. # 14 (scFv, scFv-80 with VH F29L, Q43R; VL I55T; not shown: proprietary C-terminal FLAG tag) scFv: QVQLVQSGAEVKKPGASVKVSCKASGYTLTDYYLHWVRQAPGRGLEWMGWIDPENGDTEYAPKFQGRVTMTTDTSTSTAYMELRSLRSDDTAVYYCNANKELRYFDVWGQGTMVTVSSGGGGSGGGGSGGGGSEIVMTQSPATLSVSPGERATLSCRASQSISINLHWYQQKPGQAPRLLIYFASQSTSGIPARFSGSGSGTEFTLTISSLQSEDFAVYYCQQSNSFPLTFGGGTKVEIKR		Kd (human IL-23 [3]): 0.079 nM; koff (human IL-23 [3]): 2.1e-05 s⁻¹; kon (human IL-23 [3]): 270000 M⁻¹ s⁻¹
scFv BV-B2 (scFv, scFv-80 variant: VL D82G; not shown: proprietary C-terminal FLAG tag) scFv: QVQLVQSGAEVKKPGASVKVSCKASGYTFTDYYLHWVRQAPGQGLEWMGWIDPENGDTEYAPKFQGRVTMTTDTSTSTAYMELRSLRSDDTAVYYCNANKELRYFDVWGQGTMVTVSSGGGGSGGGGSGGGGSEIVMTQSPATLSVSPGERATLSCRASQSISINLHWYQQKPGQAPRLLIYFASQSISGIPARFSGSGSGTEFTLTISSLQSEGFAVYYCQQSNSFPLTFGGGTKVEIKR	0.00029	
scFv BZ-G10 (scFv, scFv-80 variant: VL Q27R; not shown: proprietary C-terminal FLAG tag) scFv: QVQLVQSGAEVKKPGASVKVSCKASGYTFTDYYLHWVRQAPGQGLEWMGWIDPENGDTEYAPKFQGRVTMTTDTSTSTAYMELRSLRSDDTAVYYCNANKELRYFDVWGQGTMVTVSSGGGGSGGGGSGGGGSEIVMTQSPATLSVSPGERATLSCRASRSISINLHWYQQKPGQAPRLLIYFASQSISGIPARFSGSGSGTEFTLTISSLQSEDFAVYYCQQSNSFPLTFGGGTKVEIKR	0.00036	
scFv AZ-D8 (scFv, scFv-80 variant: VH Y27C; not shown: proprietary C-terminal FLAG tag) scFv: QVQLVQSGAEVKKPGASVKVSCKASGCTFTDYYLHWVRQAPGQGLEWMGWIDPENGDTEYAPKFQGRVTMTTDTSTSTAYMELRSLRSDDTAVYYCNANKELRYFDVWGQGTMVTVSSGGGGSGGGGSGGGGSEIVMTQSPATLSVSPGERATLSCRASQSISINLHWYQQKPGQAPRLLIYFASQSISGIPARFSGSGSGTEFTLTISSLQSEDFAVYYCQQSNSFPLTFGGGTKVEIKR	4.3e-05	
scFv combo. # 13 (scFv, scFv-80 with VH T28A, Q43R; VL I55T; not shown: proprietary C-terminal FLAG tag) scFv: QVQLVQSGAEVKKPGASVKVSCKASGYAFTDYYLHWVRQAPGRGLEWMGWIDPENGDTEYAPKFQGRVTMTTDTSTSTAYMELRSLRSDDTAVYYCNANKELRYFDVWGQGTMVTVSSGGGGSGGGGSGGGGSEIVMTQSPATLSVSPGERATLSCRASQSISINLHWYQQKPGQAPRLLIYFASQSTSGIPARFSGSGSGTEFTLTISSLQSEDFAVYYCQQSNSFPLTFGGGTKVEIKR		Kd (human IL-23 [3]): 0.051 nM; koff (human IL-23 [3]): 1.3e-05 s⁻¹; kon (human IL-23 [3]): 250000 M⁻¹ s⁻¹
scFv BY-B4 (scFv, scFv-80 variant: VH T28A; not shown: proprietary C-terminal FLAG tag) scFv: QVQLVQSGAEVKKPGASVKVSCKASGYAFTDYYLHWVRQAPGQGLEWMGWIDPENGDTEYAPKFQGRVTMTTDTSTSTAYMELRSLRSDDTAVYYCNANKELRYFDVWGQGTMVTVSSGGGGSGGGGSGGGGSEIVMTQSPATLSVSPGERATLSCRASQSISINLHWYQQKPGQAPRLLIYFASQSISGIPARFSGSGSGTEFTLTISSLQSEDFAVYYCQQSNSFPLTFGGGTKVEIKR	0.00033	
scFv AY-G7 (scFv, scFv-80 variant: VL Y86H; not shown: proprietary C-terminal FLAG tag) scFv: QVQLVQSGAEVKKPGASVKVSCKASGYTFTDYYLHWVRQAPGQGLEWMGWIDPENGDTEYAPKFQGRVTMTTDTSTSTAYMELRSLRSDDTAVYYCNANKELRYFDVWGQGTMVTVSSGGGGSGGGGSGGGGSEIVMTQSPATLSVSPGERATLSCRASQSISINLHWYQQKPGQAPRLLIYFASQSISGIPARFSGSGSGTEFTLTISSLQSEDFAVHYCQQSNSFPLTFGGGTKVEIKR	0.00012	
